We go through 1 substance from paper PMC7353164.

This experiment deals with Tim21HA (yeast) (UniProt P53220). The experiment is described as follows: co-IP.
Sequence of UniProt P53220 (P53220 71-239): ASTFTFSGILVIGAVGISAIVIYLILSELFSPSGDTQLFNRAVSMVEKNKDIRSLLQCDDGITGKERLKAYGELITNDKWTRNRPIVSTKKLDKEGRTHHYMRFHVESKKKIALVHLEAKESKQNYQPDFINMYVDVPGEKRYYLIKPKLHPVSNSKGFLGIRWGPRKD

“Mgr2 G26L (from UniProt Q02889 1-113) (natural protein)” registered a percent reduction of co-precipitation against wild type of 50%.
